Measurements from patent US20200339702A1 (ULTRAHUMAN THIRTEEN, published 2020).

T1: rhesus ERBB3 on transiently transfected HEK-293 cells (rhesus monkey (Macaca mulatta), UniProt P21860 20-1342 (human entry))
T1 construct: also called rhesus ERBB3+ HEK-293 cells
T1 chain: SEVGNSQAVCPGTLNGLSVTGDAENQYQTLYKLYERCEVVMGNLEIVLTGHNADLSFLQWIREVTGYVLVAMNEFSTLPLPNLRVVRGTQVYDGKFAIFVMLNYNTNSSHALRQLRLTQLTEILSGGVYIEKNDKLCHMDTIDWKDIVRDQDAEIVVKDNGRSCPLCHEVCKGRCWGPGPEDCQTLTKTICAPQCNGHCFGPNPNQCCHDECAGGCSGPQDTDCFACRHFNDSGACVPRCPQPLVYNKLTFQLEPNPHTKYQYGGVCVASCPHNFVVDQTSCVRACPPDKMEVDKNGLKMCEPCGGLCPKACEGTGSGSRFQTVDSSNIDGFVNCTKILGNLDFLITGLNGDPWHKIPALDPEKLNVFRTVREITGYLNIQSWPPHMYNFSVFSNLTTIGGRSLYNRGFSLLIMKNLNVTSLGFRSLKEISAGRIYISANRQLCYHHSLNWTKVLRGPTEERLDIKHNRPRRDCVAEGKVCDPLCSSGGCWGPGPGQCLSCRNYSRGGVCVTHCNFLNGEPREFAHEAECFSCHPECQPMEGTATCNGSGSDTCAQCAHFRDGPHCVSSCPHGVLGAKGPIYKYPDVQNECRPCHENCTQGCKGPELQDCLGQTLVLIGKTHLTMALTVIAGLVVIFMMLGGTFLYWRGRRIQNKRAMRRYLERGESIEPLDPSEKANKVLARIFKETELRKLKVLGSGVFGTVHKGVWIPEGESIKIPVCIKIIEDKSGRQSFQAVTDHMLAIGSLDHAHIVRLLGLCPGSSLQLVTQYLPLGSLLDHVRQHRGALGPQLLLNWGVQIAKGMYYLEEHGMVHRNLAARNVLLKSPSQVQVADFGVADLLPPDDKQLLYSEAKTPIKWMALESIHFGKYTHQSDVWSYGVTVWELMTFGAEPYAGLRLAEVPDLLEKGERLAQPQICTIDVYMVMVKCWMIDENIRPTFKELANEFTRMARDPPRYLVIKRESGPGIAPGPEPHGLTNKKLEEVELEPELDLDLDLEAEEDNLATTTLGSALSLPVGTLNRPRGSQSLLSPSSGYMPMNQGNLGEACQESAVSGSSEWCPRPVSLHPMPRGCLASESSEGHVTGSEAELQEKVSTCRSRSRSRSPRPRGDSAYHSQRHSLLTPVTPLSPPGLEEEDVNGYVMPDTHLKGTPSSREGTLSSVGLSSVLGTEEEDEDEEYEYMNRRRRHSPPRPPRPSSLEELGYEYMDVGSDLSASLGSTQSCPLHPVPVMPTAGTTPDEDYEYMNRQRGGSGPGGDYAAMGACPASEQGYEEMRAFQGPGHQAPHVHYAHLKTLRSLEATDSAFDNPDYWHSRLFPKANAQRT

T2: rhesus monkey ERBB3 human Fc tagged recombinant protein (rhesus monkey (Macaca mulatta), UniProt P21860 20-643 (human entry), limits assumed)
T2 construct: also called rhesus ERBB3-Fc; rhERBB3
T2 chain: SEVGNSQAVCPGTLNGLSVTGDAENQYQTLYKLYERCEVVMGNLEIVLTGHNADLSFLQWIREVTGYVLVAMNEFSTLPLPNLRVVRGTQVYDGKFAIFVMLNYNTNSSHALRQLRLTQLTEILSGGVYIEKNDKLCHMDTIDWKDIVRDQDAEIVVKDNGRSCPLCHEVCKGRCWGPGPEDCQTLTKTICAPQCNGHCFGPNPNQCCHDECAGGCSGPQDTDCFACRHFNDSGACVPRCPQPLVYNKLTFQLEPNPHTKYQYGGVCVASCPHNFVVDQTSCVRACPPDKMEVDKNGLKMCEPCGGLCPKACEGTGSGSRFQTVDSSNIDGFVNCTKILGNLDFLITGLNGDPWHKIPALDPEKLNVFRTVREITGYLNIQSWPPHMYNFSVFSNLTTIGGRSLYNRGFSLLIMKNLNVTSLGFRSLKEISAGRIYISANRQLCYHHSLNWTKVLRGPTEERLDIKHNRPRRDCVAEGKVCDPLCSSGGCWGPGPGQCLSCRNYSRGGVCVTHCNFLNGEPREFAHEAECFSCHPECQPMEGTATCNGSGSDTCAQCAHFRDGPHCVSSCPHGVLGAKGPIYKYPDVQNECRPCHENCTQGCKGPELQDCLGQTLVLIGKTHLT


Experiments:
[1] = molecular target: T3, human ERBB3 on transiently transfected HEK-293 cells (human, UniProt P21860 20-1342); experiment: flow cytometry, human ERBB3-transfected HEK-293
T3 construct: also called human ERBB3+ HEK-293 cells
Method: (§1) Purified IgGs were tested in FACs for binding to human and rhesus monkey ERBB3 expressed on transiently transfected HEK-293 cells and HEK-293 wild-type cells. The IgG samples were titrated in three-fold serial dilutions starting at 500 nM to 0.008 nM. Binding of IgGs was detected with a mouse anti-human IgG conjugated to FITC. Results were analyzed by examining the Mean Fluorescence Intensity (MFI) of 10000 cells per sample in the BL-1 channel detector of a flow cytometer (Attune™ NxT Acoustic Focusing Cytometer, Invitrogen/ThermoFisher Scientific).
(§2) Antibodies to ERBB3 were analysed for concentration-dependent binding at the cell surface via flow cytometry. HEK-293 cells were transiently transfected with either human or rhesus ERBB3 full-length cDNAs. Anti-ERBB3 IgGs and an isotype control were then all tested in IgG1null format, over a concentration range of 500-0.008 nM for binding to human (FIG. 5A) and rhesus (FIG. 5B) transfected cells.

[2] = molecular target: T1, rhesus ERBB3 on transiently transfected …; experiment: flow cytometry, rhesus ERBB3-transfected HEK-293
Method: as §1, §2

[3] = molecular target: T4, human ERBB3 human Fc tagged recombinant protein (human, UniProt P21860 20-643); experiment: direct binding ELISA on coated human ERBB3-Fc, IgG1null titrated
T4 construct: also called human ERBB3-Fc; huERBB3
Method: (§3) Binding and cross-reactivity of the lead panel to the recombinant proteins was initially assessed by binding ELISA. The human ERBB3 human Fc tagged recombinant protein and the rhesus monkey ERBB3 human Fc tagged recombinant protein were coated to the surface of MaxiSorp™ flat-bottom 96 well plate at 1 μg/ml. The purified IgG samples were titrated in two fold serial dilutions starting from 500 nM to 0.008 nM and allowed to bind to the coated antigens. The Fabs were detected using mouse anti-c-myc antibody followed by donkey anti-mouse IgG conjugated to horseradish peroxidase. The IgGs were detected using the mouse anti-human IgG conjugated to horseradish peroxidase. Binding signals were visualized with 3,3′,5,5′-Tetramethylbenzidine Substrate Solution (TMB) and the absorbance measured at 450 nm.

[4] = molecular target: T2, rhesus monkey ERBB3 human Fc tagged …; experiment: direct binding ELISA on coated rhesus ERBB3-Fc, IgG1null titrated
Method: as §3

| maximum MFI, fold over isotype control background [1] [fold] | maximum MFI, fold over isotype control background [2] [fold] | EC50 (read off the curve) [3] [nM] | EC50 (read off the curve) [4] [nM] | Binder |
| --- | --- | --- | --- | --- |
| > 20 | > 20 | ~0.2 | ~0.1 | 09D12 IgG1null (antibody, V domains shown, Human IgG1null and human Ckappa) VH: QVQLVESGGGLVKPGGSLRLSCAASGFTFSDYGMSWIRQAPGKGLEWVSTISDGGSYTYYADSVKGRFTISRDNAKNSLYLQMNSLRAEDTAVYYCAREYGDYDGFDYWGQGTLVTVSS VL: DIQMTQSPSSLSASVGDRVTITCRASQSISSYLNWYQQKPGKAPKLLIYAASSLDSGVPSRFSGSGSGTDFTLTISSLQPEDFATYYCLQYDSTPLTFGGGTKVEIK |
| > 20 | > 20 | ~0.3 | ~0.2 | TTP IgG1null (antibody, V domains shown, Designer clone; Human IgG1null and human Ckappa; also called Total Theoretically Possible clone) VH: QVQLVESGGGLVKPGGSLRLSCAASGFTFSDYGMSWIRQAPGKGLEWVSTISDSGSTIYYADSVKGRFTISRDNAKNSLYLQMNSLRAEDTAVYYCAREYGDYDGFDYWGQGTLVTVSS VL: DIQMTQSPSSLSASVGDRVTITCRASQSISSYLNWYQQKPGKAPKLLIYAASSLQSGVPSRFSGSGSGTDFTLTISSLQPEDFATYYCLQYDSTPLTFGGGTKVEIK |
